These results are taken from patent US20260226152A1 (GlaxoSmithKline, published 2026).

Usually Kd stands for the free concentration of one partner at which half of the binding sites on the other are occupied at equilibrium, for simple one-to-one binding. Low readings indicate higher affinity, high ones lower affinity.

Experiment [1] has as its target T1, Human IL-18 (human, UniProt Q14116 37-193).
T1 sequence: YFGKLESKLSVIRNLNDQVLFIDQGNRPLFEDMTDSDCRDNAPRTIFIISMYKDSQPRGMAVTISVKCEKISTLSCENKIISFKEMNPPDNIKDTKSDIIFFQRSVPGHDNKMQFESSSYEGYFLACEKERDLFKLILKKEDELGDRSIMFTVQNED
As to the kind of experiment: cell-based or functional assay.

Experiment [2] concerns the target T2, Human IL-23 (human, UniProt Q9NPF7 20-189; P29460 23-328).
T2 sequence 1: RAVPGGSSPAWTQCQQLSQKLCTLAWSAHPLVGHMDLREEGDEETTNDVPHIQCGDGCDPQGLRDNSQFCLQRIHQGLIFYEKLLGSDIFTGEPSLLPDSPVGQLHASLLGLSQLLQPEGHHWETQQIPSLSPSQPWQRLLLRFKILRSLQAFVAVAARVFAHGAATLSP
T2 sequence 2: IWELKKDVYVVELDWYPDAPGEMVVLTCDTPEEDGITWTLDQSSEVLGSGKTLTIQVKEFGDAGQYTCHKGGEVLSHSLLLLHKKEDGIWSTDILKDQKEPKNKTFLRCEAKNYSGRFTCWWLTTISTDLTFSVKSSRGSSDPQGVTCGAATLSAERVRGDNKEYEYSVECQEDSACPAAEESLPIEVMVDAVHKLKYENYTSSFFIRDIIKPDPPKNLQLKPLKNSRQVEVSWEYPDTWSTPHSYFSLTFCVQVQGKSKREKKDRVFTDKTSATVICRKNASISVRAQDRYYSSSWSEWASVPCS
Briefly: cell-based or functional assay.

For experiment [3], the target named is T2, Human IL-23. Briefly: cell-based or functional assay. This is another data set of the same source.
Experiment [4] deals with T1, Human IL-18. As to the kind of experiment: SPR (Biacore), antibody captured on Protein A/G, cytokine as analyte, 25 C. The procedure: (§1) A heterodimeric bsAb, alongside anti-IL-18 and anti-IL-23 common light chain control bispecific antibodies, were assessed for binding to human and cyno IL-18 and IL-23, using the Biacore 8K and T200 (Cytiva) surface plasmon resonance (SPR) instruments. All reagents were generated recombinantly in-house with the exception of Rhesus monkey IL-18 which was purchased from R&D systems (Cat #2548-RM-025/CF). Rhesus and cynomolgus monkey amino acid sequences are identical. Therefore, the protein will be referred to as cynomolgus monkey IL-18.
(§2) Heterodimeric bsAb, anti-IL-18 and anti-IL-23 common light chain bispecific control molecules were assessed for binding to recombinant human and cynomolgus monkey IL-18 and IL-23 using the Biacore 8K and T200 (Cytiva) SPR instruments. The antibodies were captured onto Protein A/G, which was immobilised onto flow cell 2 of 8 channels (Biacore 8K) or flow cells 2, 3 and 4 (Biacore T200) of a CM5 series S sensor chip by primary amine coupling. The IL-18 or IL-23 analytes were passed over the captured antibodies at varying concentrations between 0.04-25 nM. The association phase was for 240 seconds at 30 μl/min, followed by a dissociation step of up to 1200 seconds. A 0 nM (i.e., buffer alone) injection was used to double reference the binding curves. Regeneration of the chip surface between cycles was carried out using 50 mM NaOH. The assay was run at 25° C. in HBS-EP⁺ buffer. Biacore 8K control software version 3.0 was used to run the experiment. Data was analysed using Biacore 8K Insight evaluation software version 3.0. Biacore T200 control software version 1.0 was used to run the experiment. Data was analysed using Biacore T200 evaluation software version 2.0. Affinities and kinetics were determined using the 1:1 kinetic fit inherent to the software where possible. All affinity values generated using both instruments were combined to determine geometric mean values.

In experiment [5] the target is T2, Human IL-23. Briefly: SPR (Biacore), antibody captured on Protein A/G, cytokine as analyte, 25 C, 1:1 fit, n=1. The procedure: as §1, §2
(In general: SPR reads the build-up and loss of mass on a sensor chip optically.)

In the next experiment the target is T3, Human recombinant IL-12 (human, UniProt P29459 23-219).
T3 sequence 1: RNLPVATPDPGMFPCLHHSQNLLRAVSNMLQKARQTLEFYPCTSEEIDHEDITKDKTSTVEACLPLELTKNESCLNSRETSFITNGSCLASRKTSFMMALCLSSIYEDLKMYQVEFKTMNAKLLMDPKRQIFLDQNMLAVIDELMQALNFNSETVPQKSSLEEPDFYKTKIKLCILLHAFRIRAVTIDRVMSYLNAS
T3 sequence 2: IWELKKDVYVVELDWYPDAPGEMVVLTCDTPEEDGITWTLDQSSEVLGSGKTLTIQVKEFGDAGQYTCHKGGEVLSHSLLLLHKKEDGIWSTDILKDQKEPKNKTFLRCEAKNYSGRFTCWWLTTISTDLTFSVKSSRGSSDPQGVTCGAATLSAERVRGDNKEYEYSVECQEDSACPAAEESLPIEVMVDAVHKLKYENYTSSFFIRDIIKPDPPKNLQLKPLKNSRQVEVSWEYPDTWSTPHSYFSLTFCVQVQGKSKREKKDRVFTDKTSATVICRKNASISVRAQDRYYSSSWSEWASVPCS
As to the kind of experiment: cell-based or functional assay.

In experiment [6] the target is T1, Human IL-18. Briefly: cell-based or functional assay. This is another data set of the same source.
Experiment [7] deals with T1, Human IL-18. Briefly: SPR (Biacore), antibody captured on Protein A/G, cytokine as analyte, 25 C, 1:1 fit, n=1. As to the method: as §1, §2

B1: IL-23 control 2 (antibody, V domains shown)
VH: QVQLVQSGAEVKKPGSSVKVSCKASGYTFTDQTIHWMRQAPGQGLEWIGYIYPRDDSPKYNENFKGKVTITADKSTSTAYMELSSLRSEDTAVYYCAIPDRSGYAWFIYWGQGTLVTVSS
VL: DIQMTQSPSSLSASVGDRVTITCKASRDVAIAVAWYQQKPGKVPKLLIYWASTRHTGVPSRFSGSGSRTDFTLTISSLQPEDVADYFCHQYSSYPFTFGSGTKLEIK
notes: Anti-IL-23 (risankizumab) mAb plus Het-mAb Fc mutations of Heterodimeric bsAbs 1-4 and silencing (LAGA) mutations; also called risankizumab variable domains
As to B1, the “pIC50 (GeoMean), neutralisation of human IL-18-induced IFNγ secretion by KG-1 cells” value in the experiment with Human IL-18 [1] is < 8.48. Moreover, in the experiment with Human IL-23 [2], the “IC50 Parent (pM), inhibition of IL-23-induced pSTAT3 in T cells of human whole blood (run with Heterodimeric bsAb-1)” value is 282 pM and the “IC50 Parent (pM), inhibition of IL-23-induced pSTAT3 in T cells of human whole blood (run with Heterodimeric bsAb-2)” value was found to be 286 pM. In the experiment with Human IL-23 [3], the “IC50 Parent (pM), inhibition of human IL-23-induced mouse IL-17A secretion in mouse splenocytes (run with Heterodimeric bsAb-1)” value was 60 pM and the “IC50 Parent (pM), inhibition of human IL-23-induced mouse IL-17A secretion in mouse splenocytes (run with Heterodimeric bsAb-2)” value came out at 53.3 pM. Moreover, in the experiment with Human IL-18 [4], the binding result is “no binding (tested: 0.04-25 nM analyte)”. Further, the Kd with Human IL-23 [5] came to 0.163 nM.

B2: Ustekinumab (antibody, V domains shown)
VH: EVQLVQSGAEVKKPGESLKISCKGSGYSFTTYWLGWVRQMPGKGLDWIGIMSPVDSDIRYSPSFQGQVTMSVDKSITTAYLQWNSLKASDTAMYYCARRRPGQGYFDFWGQGTLVTVSS
VL: DIQMTQSPSSLSASVGDRVTITCRASQGISSWLAWYQQKPEKAPKSLIYAASSLQSGVPSRFSGSGSGTDFTLTISSLQPEDFATYYCQQYNIYPYTFGQGTKLEIK
On to B2, for which, in the experiment with Human recombinant IL-12, the “IC50 (pM), inhibition of IL-12-induced IFNγ secretion by NK-92 cells” value came out at 875 pM and the “IC50 (ug/mL), inhibition of IL-12-induced IFNγ secretion by NK-92 cells” value is 0.13 µg/mL.

B3: Heterodimeric bsAb 3 (bispecific antibody, human IgG1, kappa)
heavy 1: QVQLVQSGAEVKKPGASVKVSCKVSGEISTGYYFHWVRQAPGKGLEWMGRIDPEDDSTKYAERFKDRVTMTEDTSTDTAYMELSSLRSEDTAVYYCTTWRIYRDSSGRPFYVMDAWGQGTLVTVSSASTKGPSVFPLAPSSKSTSGGTAALGCEVTDYFPEPVTVSWNSGALTSGVHTFPAVLESSGLYSLSSVVTVPSSSLGTQTYICNVNHKPSNTKVDKKVEPKSCDKTHTCPPCPAPELAGAPSVFLFPPKPKDTLMISRTPEVTCVVVDVSHEDPEVKFNWYVDGVEVHNAKTKPREEQYNSTYRVVSVLTVLHQDWLNGKEYKCKVSNKALPAPIEKTISKAKGQPREPQVYVYPPSRDELTKNQVSLTCLVKGFYPSDIAVEWESNGQPENNYKTTPPVLDSDGSFALVSKLTVDKSRWQQGNVFSCSVMHEALHNHYTQKSLSLSPGK
light 1: DIQMTQSPSSVSASVGDRVTITCLASEDIYTYLTWYQQKPGKAPKLLIYGANKLQDGVPSRFSGSGSGTDYTLTISSLQPEDFATYYCLQGSKFPLTFGQGTKLEIKRTVAAPSVFIFPPSDERLKSGTASVVCLLNNFYPREAKVQWKVDNALQSGNSQESVTEQDSKDSTYSLSSRLTLSKADYEKHKVYACEVTHQGLSSPVTKSFNRGEC
heavy 2: QVQLVQSGAEVKKPGASVKVSCKASGYIFITYWMTWVRQAPGQGLEWMGQIFPASGSADYNEKFEGRVTMTTDTSTSTAYMELRSLRSDDTAVYYCARGGGGFAYWGQGTLVTVSSASTKGPSVFPLAPSSKSTSGGTAALGCRVKDYFPEPVTVSWNSGALTSGVHTFPAVLQSSGLYSLSSVVTVPSSSLGTQTYICNVNHKPSNTKVDKKVEPKSCDKTHTCPPCPAPELAGAPSVFLFPPKPKDTLMISRTPEVTCVVVDVSHEDPEVKFNWYVDGVEVHNAKTKPREEQYNSTYRVVSVLTVLHQDWLNGKEYKCKVSNKALPAPIEKTISKAKGQPREPQVYVLPPSRDELTKNQVSLLCLVKGFYPSDIAVEWESNGQPENNYLTWPPVLDSDGSFFLYSKLTVDKSRWQQGNVFSCSVMHEALHNHYTQKSLSLSPGK
light 2: DIQMTQSPSSLSASVGDRVTITCRTSENIYSYLAWYQQKPGKAPKLLIYNAKTLAEGVPSRFSGSGSGTDFTLTISSLQPEDFATYYCQHHYGIPFTFGQGTKVEIKRTVAAPSVFIFPPSDEELKSGTASVECLLNNFYPREAKVQWKVDNALQSGNSQESVTEQDSKDSTYSLSSTLTLSKADYEKHKVYACEVTHQGLSSPVTKSFNRGEC
notes: Het-mAb format: anti-IL-18 mAb on ZA and anti-IL-23 mAb (tildrakizumab) on ZB, with Fc heterodimerisation and silencing mutations
For the molecule B3, in the experiment with Human IL-18 [1], the “IC50 (pM, Mean), neutralisation of human IL-18-induced IFNγ secretion by KG-1 cells” value is 105 pM and the “pIC50 (GeoMean), neutralisation of human IL-18-induced IFNγ secretion by KG-1 cells” value came to 9.98. Moreover, in the experiment with Human IL-18 [6], the “IC50 Heterodimeric bsAbs (% of Parent IL-18 control 3), LPS + IL12-induced IFN-γ in human whole blood” value was 280 % of Parent and the “IC50 Heterodimeric bsAbs (nM), inhibition of LPS + IL12-induced IFN-γ in human whole blood” value was determined as 21.7 nM. For the same molecule, in the experiment with Human IL-23 [2], the “IC50 Heterodimeric bsAbs (% of Parent IL-23 control 3), IL-23-induced pSTAT3 in T cells of human whole blood” value is 100 % of Parent and the “IC50 Heterodimeric bsAbs (pM), inhibition of IL-23-induced pSTAT3 in CD3+CD161+ T cells of human whole blood” value came to 640 pM. In the experiment with Human IL-23 [3], the “IC50 Heterodimeric bsAb (% of Parent IL-23 control 3), IL-23-induced mouse IL-17A in mouse splenocytes” value was 387 % of Parent and the “IC50 Heterodimeric bsAb (pM), inhibition of human IL-23-induced mouse IL-17A secretion in mouse splenocytes” value was determined as 2670 pM. The Kd in the experiment with Human IL-18 [7] was < 0.01 nM. The molecule further came in with a Kd in the experiment with Human IL-23 [5] of 0.499 nM.

B4: IL-23 control 3 (antibody, V domains shown)
VH: QVQLVQSGAEVKKPGASVKVSCKASGYIFITYWMTWVRQAPGQGLEWMGQIFPASGSADYNEKFEGRVTMTTDTSTSTAYMELRSLRSDDTAVYYCARGGGGFAYWGQGTLVTVSS
VL: DIQMTQSPSSLSASVGDRVTITCRTSENIYSYLAWYQQKPGKAPKLLIYNAKTLAEGVPSRFSGSGSGTDFTLTISSLQPEDFATYYCQHHYGIPFTFGQGTKVEIK
notes: Anti-IL-23 (tildrakizumab) plus Het-mAb Fc mutations of Heterodimeric bsAbs 1-4 and half-life extending (YTE) mutations; also called tildrakizumab variable domains
In the case of B4, the “IC50 Parent (pM), inhibition of IL-23-induced pSTAT3 in T cells of human whole blood (run with Heterodimeric bsAb-3)” value in the experiment with Human IL-23 [2] was found to be 637 pM. In the experiment with Human IL-23 [3], the “IC50 Parent (pM), inhibition of human IL-23-induced mouse IL-17A secretion in mouse splenocytes (run with Heterodimeric bsAb-3)” value was 687 pM. The binding result in the experiment with Human IL-18 [4] is reported as “no binding (tested: 0.04-25 nM analyte)”. Further, in the experiment with Human IL-23 [5], binding was put at a Kd of 0.576 nM.
